Measured values taken from US20120058906A1 (published 2012).
Blank lines part the entries; values can stand above or below the binder they belong to.

Legend:
[1] = biological target: T1, rHuman Erythropoietin R/Fc Chimera, CF (R&D Systems Cat#963-ER) (human, UniProt P19235 25-250); assay: ECL (MSD Multi-Spot) binding assay, antigen spotted on plate; Fab 120 nM; blank spot 363
T1 construct: Bought Fc chimera; also called EPO R/Fc; Epo R; Fc part of the bought chimera not given
T1 sequence: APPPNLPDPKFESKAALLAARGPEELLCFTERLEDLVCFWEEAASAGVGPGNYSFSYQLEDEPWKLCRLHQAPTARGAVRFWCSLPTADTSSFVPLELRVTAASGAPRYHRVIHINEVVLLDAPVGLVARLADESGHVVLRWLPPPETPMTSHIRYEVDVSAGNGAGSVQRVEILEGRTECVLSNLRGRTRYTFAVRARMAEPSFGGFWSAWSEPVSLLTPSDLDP

[2] = biological target: T2, rHuman P-Cadherin/Fc Chimera, CF (R&D Systems Cat#861-PC) (human, UniProt P22223 108-654); assay: as above
T2 construct: Bought Fc chimera; also called CDH3; Fc part of the bought chimera not given

[3] = biological target: T3, rHuman CD44/Fc Chimera, CF (R&D Systems Cat#3660-CD) (human, UniProt P16070 21-220); assay: as above
T3 construct: Bought Fc chimera; Fc part of the bought chimera not given

[4] = biological target: T4, Recombinant Human DLL4 (R&D Systems Cat#1506-D4/CF) (human, UniProt Q9NR61 27-524); assay: as above
T4 construct: Bought recombinant protein; also called delta-like protein 4; rHuman DLL4

[5] = biological target: T5, rHuman Notch-1/Fc Chimera, CF (R&D Systems Cat#3647-TK) (human, UniProt P46531 19-526); assay: as above
T5 construct: Bought Fc chimera; Fc part of the bought chimera not given

[6] = biological target: T6, rHuman IGF-1 sR (insulin-like growth factor-1 soluble receptor), CF (R&D Systems Cat#391-GR) (human, UniProt P08069 31-932); assay: ECL (MSD multi-spot), antigen on plate, Fab 50 nM
T6 construct: Bought soluble receptor; also called IGF-R1

[7] = biological target: T7, rHuman P-Cadherin/Fc Chimera, CF (R&D Systems Cat#861-PC) (human, UniProt P22223 108-654); assay: ECL (MSD multi-spot), antigen on plate, Fab 50 nM
T7 construct: Bought Fc chimera; also called CDH3; not shown: Fc of the bought chimera

[8] = biological target: T8, rHuman Erythropoietin R/Fc Chimera, CF (R&D Systems Cat#963-ER) (human, UniProt P19235 25-250); assay: ECL (MSD multi-spot), antigen on plate, Fab 50 nM
T8 construct: Bought Fc chimera; also called EPO R/Fc; Epo R; not shown: Fc of the bought chimera
T8 sequence: T1 sequence

[9] = biological target: T9, rHuman ErbB2/Fc Chimera, CF (R&D Systems Cat#1129-ER) (human, UniProt P04626 23-652); assay: ECL (MSD multi-spot), antigen on plate, Fab 50 nM
T9 construct: Bought Fc chimera; also called HER2/neu; not shown: Fc of the bought chimera

[10] = biological target: T10, rHuman EGF R/Fc Chimera, CF (R&D Systems Cat#344-ER) (human, UniProt P00533 25-645); assay: MSD ECL multi-spot plate, antigen immobilized; Fab 0.32 nM; blank spot 513
T10 construct: Purchased Fc chimera; not shown: Fc portion of the purchased chimera

[11] = biological target: T11, rHuman IGF-1 sR (IGF-1 sR), CF (R&D Systems Cat#391-GR) (human, UniProt P08069 31-932); assay: as above
T11 construct: Purchased soluble receptor; also called insulin-like growth factor-1 soluble receptor; IGF-R1

[12] = biological target: T12, rHuman HGF R/c-MET/Fc Chimera, CF (R&D Systems Cat#358-MT/CF) (human, UniProt P08581 25-932); assay: as above
T12 construct: Purchased Fc chimera; also called HGF R/Fc; not shown: Fc portion of the purchased chimera

[13] = biological target: T13, Recombinant Human DLL4 (R&D Systems Cat#1506-D4/CF) (human, UniProt Q9NR61 27-524); assay: as above
T13 construct: Purchased recombinant protein; also called delta-like protein 4

[14] = biological target: T14, rHuman CD44/Fc Chimera, CF (R&D Systems Cat#3660-CD) (human, UniProt P16070 21-220); assay: as above
T14 construct: Purchased Fc chimera; not shown: Fc portion of the purchased chimera

[15] = biological target: T15, rHuman Erythropoietin R/Fc Chimera, CF (R&D Systems Cat#963-ER) (human, UniProt P19235 25-250); assay: as above
T15 construct: Purchased Fc chimera; also called EPO R/Fc; Epo R; not shown: Fc portion of the purchased chimera
T15 sequence: T1 sequence

[16] = biological target: T16, rHuman Notch-1/Fc Chimera, CF (R&D Systems Cat#3647-TK) (human, UniProt P46531 19-526); assay: as above
T16 construct: Purchased Fc chimera; not shown: Fc portion of the purchased chimera

[17] = biological target: T17, rHuman ErbB2/Fc Chimera, CF (R&D Systems Cat#1129-ER) (human, UniProt P04626 23-652); assay: as above
T17 construct: Purchased Fc chimera; also called HER2/neu; not shown: Fc portion of the purchased chimera

[18] = biological target: T18, rHuman P-Cadherin/Fc Chimera, CF (R&D Systems Cat#861-PC) (human, UniProt P22223 108-654); assay: as above
T18 construct: Purchased Fc chimera; not shown: Fc portion of the purchased chimera
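Further: blank spot per well as comparator with Hit at signal to blank ratio of 4 or more.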

- ECL signal [1]: 431
- ECL signal [2]: 450
- ECL signal [3]: 442
- ECL signal [4]: 938
- ECL signal [5]: 472
B1: Fab VH6-1_IGHD3-3*01_IGHJ4*01 & V4-3_IGLJ4*01 (Fab, V domains shown)
VH: QVQLQQSGPGLVKPSQTLSLTCAISGDSVSSNSAAWNWIRQSPSRGLEWLGRTYYRSKWYNDYAVSVKSRITINPDTSKNQFSLQLNSVTPEDTAVYYCAREYYDFWSGYYTDYFDYWGQGTLVTVSS
VL: QPVLTQPTSLSASPGASARLTCTLRSGINLGSYRIFWYQQKPESPPRYLLSYYSDSSKHQGSGVPSRFSGSKDASSNAGILVISGLQSEDEADYYCMIWHSSASFVFGGGTQLIIL
notes: Tested as a Fab made in E. coli; also called IGHV6-1*01

- ECL signal [6]: 240 ECL signal
- ECL signal [7]: 143 ECL signal
- ECL signal [8]: 500 ECL signal
- ECL signal [9]: 395 ECL signal
B2: Fab VH1-46_IGHD6-6*01_IGHJ1*01_S102A_S103P_S104F & L6_IGKJ1*01_S30N (Fab, V domains shown)
VH: QVQLVQSGAEVKKPGASVKVSCKASGYTFTSYYMHWVRQAPGQGLEWMGIINPSGGSTSYAQKFQGRVTMTRDTSTSTVYMELSSLRSEDTAVYYCAREEYAPFSAEYFQHWGQGTLVTVSS
VL: EIVLTQSPATLSLSPGERATLSCRASQSVNSYLAWYQQKPGQAPRLLIYDASNRATGIPARFSGSGSGTDFTLTISSLEPEDFAVYYCQQRSNWPPWTFGQGTKVEIKR
notes: Fab

- ECL signal [10]: 1220 ECL signal
- ECL signal [11]: 1250 ECL signal
- ECL signal [12]: 1290 ECL signal
- ECL signal [13]: 1210 ECL signal
- ECL signal [14]: 877 ECL signal
- ECL signal [15]: 851 ECL signal
- ECL signal [16]: 983 ECL signal
- ECL signal [17]: 1480 ECL signal
- ECL signal [18]: 656 ECL signal
B3: Fab VH5-51_IGHD5-18*01>3_IGHJ4*01_G100R & V3-4_IGLJ1*01 (Fab, V domains shown)
VH: EVQLVQSGAEVKKPGESLKISCKGSGYSFTSYWIGWVRQMPGKGLEWMGIIYPGDSDTRYSPSFQGQVTISADKSISTAYLQWSSLKASDTAMYYCARRRYSYGYDYFDYWGQGTLVTVSS
VL: QTVVTQEPSFSVSPGGTVTLTCGLSSGSVSTSYYPSWYQQTPGQAPRTLIYSTNTRSSGVPDRFSGSILGNKAALTITGAQADDESDYYCVLYMGSGISYVFGTGTKVTVL
notes: It was expressed as a Fab: CH1 with tags from Plasmid A and lambda CL from Plasmid E; also called Fab No. 23
